Results from patent EP4491631A1 (Anaveon AG, dated 2025).
Blank lines part the entries; values can stand above or below the binder they belong to.

What was measured:
[1] = target: T1, IL-2R CD122-CD132 on Jurkat-PD1+ CD122+ cells (UniProt P14784 27-551; P31785 23-369); assay: cell-based or functional assay
T1 sequence (looked up) 1: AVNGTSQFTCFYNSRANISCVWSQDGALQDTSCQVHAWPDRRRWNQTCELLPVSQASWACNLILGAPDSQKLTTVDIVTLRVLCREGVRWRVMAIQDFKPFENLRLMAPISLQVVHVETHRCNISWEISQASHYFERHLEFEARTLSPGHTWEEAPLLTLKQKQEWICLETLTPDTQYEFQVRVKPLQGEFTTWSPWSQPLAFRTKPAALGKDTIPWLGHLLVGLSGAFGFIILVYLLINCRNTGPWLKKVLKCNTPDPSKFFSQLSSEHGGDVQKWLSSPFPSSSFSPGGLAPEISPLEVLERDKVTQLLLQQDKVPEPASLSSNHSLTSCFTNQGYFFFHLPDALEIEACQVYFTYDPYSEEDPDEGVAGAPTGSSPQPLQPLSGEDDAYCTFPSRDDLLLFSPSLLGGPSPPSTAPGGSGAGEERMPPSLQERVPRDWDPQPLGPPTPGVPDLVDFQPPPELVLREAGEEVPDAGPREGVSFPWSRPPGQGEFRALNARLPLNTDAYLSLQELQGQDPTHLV
T1 sequence (looked up) 2: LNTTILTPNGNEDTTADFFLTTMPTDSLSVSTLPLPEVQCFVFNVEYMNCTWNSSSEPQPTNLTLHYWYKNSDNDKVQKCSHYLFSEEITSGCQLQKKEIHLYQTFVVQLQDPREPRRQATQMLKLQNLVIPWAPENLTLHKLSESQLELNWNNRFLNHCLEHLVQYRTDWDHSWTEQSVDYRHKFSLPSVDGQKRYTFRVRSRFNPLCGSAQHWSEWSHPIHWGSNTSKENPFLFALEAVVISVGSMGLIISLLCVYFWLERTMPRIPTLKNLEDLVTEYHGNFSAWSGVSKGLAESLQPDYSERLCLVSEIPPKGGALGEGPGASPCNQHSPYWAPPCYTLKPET

[2] = target: T2, cynoPD-1 His (AcroBiosystems PD1-C5223) (cynomolgus monkey, UniProt B0LAJ3 25-170); assay: SPR, antibody captured
T2 construct: also called cPD-1
T2 sequence (B0LAJ3 entry or part of it limits assumed, form in doubt): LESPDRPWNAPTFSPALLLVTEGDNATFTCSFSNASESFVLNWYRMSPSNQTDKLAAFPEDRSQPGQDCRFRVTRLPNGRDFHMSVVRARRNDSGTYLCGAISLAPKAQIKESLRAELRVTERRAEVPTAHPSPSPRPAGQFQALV

EC50 value for pSTAT5 induction [1]: 0.27 nM
B1: XWY176 (bispecific antibody, human IgG1, kappa, lambda, L234A L235A)
chain 1: EVQLLESGGGLVQPGGSLRLSCAASGFTFSINAMTWVRQAPGKGLEWVSTISGSGFSTYYADSLKGRFTISRDNSKNTLYLQMNSLRAEDTAVYYCAKEVYGDYWGQGTLVTVSSASTKGPSVFPLAPSSKSTSGGTAALGCLVKDYFPEPVTVSWNSGALTSGVHTFPAVLQSSGLYSLSSVVTVPSSSLGTQTYICNVNHKPSNTKVDKRVEPKSCDKTHTCPPCPAPEAAGGPSVFLFPPKPKDTLMISRTPEVTCVVVDVSHEDPEVKFNWYVDGVEVHNAKTKPREEQYNSTYRVVSVLTVLHQDWLNGKEYKCKVSNKALAAPIEKTISKAKGQPREPQVYTLPPSREEMTKNQVSLTCLVKGFYPSDIAVEWESNGQPENNYKTTPPVLDSDGSFFLTSKLTVDKSRWQQGNVFSCSVMHEALHNHYTQKSLSLSPGK
chain 2: not shown
chain 3: EVQLVQSGAEVKKPGESLKISCKGSGYAFTNYLIEWVRQMPGKGLEWMGVINPGSGGTNYNEKFKGQVTISADKSISTAYLQWSSLKASDTAMYYCARWRGEGYYAYFDVWGQGTTVTVSSASTKGPSVFPLAPSSKSTSGGTAALGCLVKDYFPEPVTVSWNSGALTSGVHTFPAVLQSSGLYSLSSVVTVPSSSLGTQTYICNVNHKPSNTKVDKRVEPKSCDKTHTCPPCPAPEAAGGPSVFLFPPKPKDTLMISRTPEVTCVVVDVSHEDPEVKFNWYVDGVEVHNAKTKPREEQYNSTYRVVSVLTVLHQDWLNGKEYKCKVSNKALAAPIEKTISKAKGQPREPQVYTLPPSREEMTKNQVSLYCLVKGFYPSDIAVEWESNGQPENNYKTTPPVLDSDGSFFLYSKLTVDKSRWQQGNVFSCSVMHEALHNHYTQKSLSLSPGK
chain 4: not shown

koff [2]: 0.00338 s⁻¹
B2: z5-XVT458 (antibody, human IgG1, kappa, V domains shown)
VH: QVQLVQSGAEVKKPGASVKVSCKASGYTFTNFYIHWVRQAPGQGLEWMGSIYPNYGDTAYNQKFKDRATMTTDKSTSTAYMELRSLRSDDTAVYYCARGYSYAMDYWGQGTTVTVSS
VL: DIQMTQSPSSVSASVGDRVTITCSASQGISGDLNWYQQKPGKAPKLLIYHTSSLHSGVPSRFSGSGSGTDFTLTISSLQPEDFATYYCQYYSKDLLTFGGGTKLEIKR
notes: full hIgG1 format
